T1: human TREM2 on BWZ cells (human, UniProt Q9NZC2 19-230)
T1 construct: whole, on cells; not tied to the cell line; also called BWZ Human TREM2
T1 sequence (looked up): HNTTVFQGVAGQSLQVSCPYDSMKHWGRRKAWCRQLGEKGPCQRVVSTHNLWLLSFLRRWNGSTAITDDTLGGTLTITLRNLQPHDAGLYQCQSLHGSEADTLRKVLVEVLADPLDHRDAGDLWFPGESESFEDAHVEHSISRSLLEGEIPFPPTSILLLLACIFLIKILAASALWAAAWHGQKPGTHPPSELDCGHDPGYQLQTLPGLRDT

T2: mouse TREM2 on BWZ cells (mouse, UniProt Q99NH8 19-227)
T2 construct: whole, on cells; also called BWZ Mouse TREM2
T2 sequence (looked up): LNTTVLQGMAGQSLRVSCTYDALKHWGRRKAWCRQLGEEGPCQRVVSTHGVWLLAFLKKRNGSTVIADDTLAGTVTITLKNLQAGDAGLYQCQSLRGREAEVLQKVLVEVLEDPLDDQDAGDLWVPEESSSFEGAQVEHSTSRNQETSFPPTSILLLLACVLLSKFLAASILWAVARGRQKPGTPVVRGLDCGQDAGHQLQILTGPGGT


What was measured:
human TREM2 on BWZ cells = target: T1, human TREM2 on BWZ cells; experiment: FACS, BWZ cells
mouse TREM2 on BWZ cells = target: T2, mouse TREM2 on BWZ cells; experiment: FACS, BWZ cells

binding result (human TREM2 on BWZ cells)	binding result (mouse TREM2 on BWZ cells)	Binder
no binding	no binding	T1-68 (antibody, IgG1, V domains shown, huIgG1; also called TI-68; ADI-19144) VH: EVQLVQSGAEVKKPGESLKISCKGSGYSFTTYWIGWVRQMPGKGLEWMGIIYPGDSDTRYSPSFQGQVTISADKSISTAYLQWSSLKASDTAMYYCARGSPWDGRLFDIWGQGTMVTVSS VL: EIVLTQSPATLSLSPGERATLSCRASQSVSSYLAWYQQKPGQAPRLLIYDASNRATGIPARFSGSGSGTDFTLTISSLEPEDFAVYYCQQFDNLPYTFGGGTKVEIK
no binding	no binding	T1-64 (antibody, IgG1, V domains shown, huIgG1; also called TI-64; ADI-19140) VH: QLQLQESGPGLVKPSETLSLTCTVSGGSISSSSYYWGWIRQPPGKGLEWIGSISYSGSTYYNPSLKSRVTISVDTSKNQFSLKLSSVTAADTAVYYCARYYSPYGMDVWGQGTTVTVSS VL: not shown
no binding	no binding	T1-65 (antibody, IgG1, V domains shown, huIgG1; also called TI-65; ADI-19141) VH: QLQLQESGPGLVKPSETLSLTCTVSGGSISSSDYYWGWIRQPPGKGLEWIGSIYYSGSTYYNPSLKSRVTISVDTSKNQFSLKLSSVTAADTAVYYCARDSGQYTGSLDVWGQGTMVTVSS VL: not shown
no binding	no binding	T1-67 (antibody, IgG1, V domains shown, huIgG1; also called TI-67; ADI-19143) VH: QVQLVQSGAEVKKPGASVKVSCKASGYTFTSYGIHWVRQAPGQGLEWMGWISAYNGNTNYAQKLQGRVTMTTDTSTSTAYMELRSLRSDDTAVYYCARGRPSSSWGNWFDPWGQGTTVTVSS VL: EIVLTQSPGTLSLSPGERATLSCRASQSVSSSFLAWYQQKPGQAPRLLIYGASSRATGIPDRFSGSGSGTDFTLTISRLEPEDFAVYYCQQAVSLPWTFGGGTKVEIK
no binding	no binding	T1-61 (antibody, IgG1, V domains shown, huIgG1; also called TI-61; ADI-19137) VH: QVQLQESGPGLVKPSETLSLTCAVSGYSISSGYYWGWIRQPPGKGLEWIGSIYHSGSTYYNPSLKSRVTISVDTSKNQFSLKLSSVTAADTAVYYCARHDDYLSSFDPWGQGTLVTVSS VL: not shown
no binding	no binding	T1-51 (antibody, IgG1, V domains shown, huIgG1; also called TI-51; ADI-19126) VH: QVQLVQSGAEVKKPGSSVKVSCKASGGTFSSYAISWVRQAPGQGLEWMGSIIPIFGTANYAQKFQGRVTITADESTSTAYMELSSLRSEDTAVYYCARSGGYSSSWYGTGYDYWGQGTLVTVSS VL: DIQMTQSPSTLSASVGDRVTITCRASQSISSWLAWYQQKPGKAPKLLIYKASSLESGVPSRFSGSGSGTEFTLTISSLQPDDFATYYCQQFQSYPFTFGGGTKVEIK
no binding	no binding	T1-57 (antibody, IgG1, V domains shown, huIgG1; also called TI-57; ADI-19132) VH: EVQLVESGGGLVQPGRSLRLSCAASGFTFDDYAMHWVRQAPGKGLEWVSGITWNSGSIGYADSVKGRFTISRDNAKNSLYLQMNSLRAEDTALYYCAKGPRYSKPYFDYWGQGTLVTVSS VL: DIQMTQSPSSVSASVGDRVTITCRASQGIDSWLAWYQQKPGKAPKLLIYAASSLQSGVPSRFSGSGSGTDFTLTISSLQPEDFATYYCQQRAVFPPTFGGGTKVEIK
no binding	no binding	T1-70 (antibody, IgG1, V domains shown, huIgG1; also called TI-70; ADI-19146) VH: QVQLVQSGAEVKKPGASVKVSCKASGYTFTSYGIHWVRQAPGQGLEWMGWISAYNGNTNYAQKLQGRVTMTTDTSTSTAYMELRSLRSDDTAVYYCARAGTIYGRLDLWGRGTLVTVSS VL: DIQLTQSPSSVSASVGDRVTITCRASQDISSWLAWYQQKPGKAPKLLIYAASSLQSGVPSRFSGSGSGTDFTLTISSLQPEDFATYYCQQAVSHPLTFGGGTKVEIK
no binding	no binding	T1-69 (antibody, IgG1, V domains shown, huIgG1; also called TI-69; ADI-19145) VH: QVQLVQSGAEVKKPGASVKVSCKASGYTFTSYGISWVRQAPGQGLEWMGWISAYNGNTNYAQKLQGRVTMTTDTSTSTAYMELRSLRSDDTAVYYCARGAGMYDGSPLGMDVWGQGTTVTVSS VL: DIQMTQSPSSVSASVGDRVTITCRASQGISSWLAWYQQKPGKAPKLLIYAASNLQSGVPSRFSGSGSGTDFTLTISSLQPEDFATYYCQQATAHPPTFGGGTKVEIK
no binding	no binding	T1-59 (antibody, IgG1, V domains shown, huIgG1; also called TI-59; ADI-19135) VH: QVQLQESGPGLVKPSETLSLTCAVSGYSISSGYYWAWIRQPPGKGLEWIGSIYHSGSTYYNPSLKSRVTISVDTSKNQFSLKLSSVTAADTAVYYCARDLGGYEGAFDPWGQGTLVTVSS VL: not shown
no binding	no binding	T1-56 (antibody, IgG1, V domains shown, huIgG1; also called TI-56; ADI-19131) VH: EVQLVESGGGLVQPGRSLRLSCAASGFTFDDYAMHWVRQAPGKGLEWVSGISWNSGSIGYADSVKGRFTISRDNAKNSLYLQMNSLRAEDTALYYCAKGPRLLGYFDLWGRGTLVTVSS VL: not shown
no binding	no binding	T1-63 (antibody, IgG1, V domains shown, huIgG1; also called TI-63; ADI-19139) VH: QVQLQESGPGLVKPSETLSLTCAVSGYSISSGYYWGWIRQPPGKGLEWIGSIYHSGNTYYNPSLKSRVTISVDTSKNQFSLKLSSVTAADTAVYYCARELYAYSSPMFYGMDVWGRGTTVTVSS VL: DIQMTQSPSSLSASVGDRVTITCRASQSISRYLNWYQQKPGKAPKLLIYAASSLQSGVPSRFSGSGSGTDFTLTISSLQPEDFATYYCQQLYHAPPITFGGGTKVEIK
no binding	no binding	T1-9 (antibody, IgG1, V domains shown, huIgG1; also called TI-9; ADI-19076) VH: QVQLVQSGAEVKKPGASVKVSCKASGYTFTSYYMHWVRQAPGQGLEWMGIINPSGGSTSYAQKFQGRVTMTRDTSTSTVYMELSSLRSEDTAVYYCAREAGYDISSAFDIWGQGTMVTVSS VL: not shown
no binding	no binding	T1-53 (antibody, IgG1, V domains shown, huIgG1; also called TI-53; ADI-19128) VH: QVQLVQSGAEVKKPGASVKVSCKASGYTFTSYYIHWVRQAPGQGLEWMGIINPSGGSTSYAQKFQGRVTMTRDTSTSTVYMELSSLRSEDTAVYYCARESGYHVSTAFDIWGQGTMVTVSS VL: not shown
no binding	no binding	T1-6 (antibody, IgG1, V domains shown, huIgG1; also called TI-6; ADI-19072) VH: QVQLVQSGAEVKKPGASVKVSCKASGYTFTSYYMHWVRQAPGQGLEWMGVINPSGGSTSYAQKFQGRVTMTRDTSTSTVYMELSSLRSEDTAVYYCARESGHSYVSSFDPWGQGTLVTVSS VL: not shown
no binding	no binding	T1-52 (antibody, IgG1, V domains shown, huIgG1; also called TI-52; ADI-19127) VH: QVQLVQSGAEVKKPGSSVKVSCKASGGTFSSYAISWVRQAPGQGLEWMGSIIPIFGTANYAQKFQGRVTITADESTSTAYMELSSLRSEDTAVYYCARDRGQYSSSWYGRMDVWGQGTTVTVSS VL: DIQMTQSPSTLSASVGDRVTITCRASQSISSWLAWYQQKPGKAPKLLIYKASSLESGVPSRFSGSGSGTEFTLTISSLQPDDFATYYCQQSSADSPFTFGGGTKVEIK
no binding	no binding	T1-55 (antibody, IgG1, V domains shown, huIgG1; also called TI-55; ADI-19130) VH: QVQLVQSGAEVKKPGASVKVSCKASGYTFTSYYMHWVRQAPGQGLEWMGVINPSGGSTSYAQKFQGRVTMTRDTSTSTVYMELSSLRSEDTAVYYCARGADYYAGFDYWGQGTLVTVSS VL: not shown

Source: patent US11472877 (Alector, dated 2022)
